Measurements reported in paper PMC3988878, “Ultrastructural characterisation of Bacillus subtilis TatA complexes suggests they are too small to form homooligomeric translocation pores” (Biochimica et Biophysica Acta, 2013).

Molecular target: the molecule itself
Assay: SEC; Superdex 200 HR 10/30, calibrated; 240 μl of concentrated Talon eluate; 20 mM Trizma, 150 mM NaCl, 0.02% DDM; 0.5 ml/min; fractions immunoblotted for the His-tag

B1: B. subtilis TatAd with a C-terminal His-tag (natural protein, UniProt O31467 1-70, looked up)
chain: MFSNIGIPGLILIFVIALIIFGPSKLPEIGRAAGRTLLEFKSATKSLVSGDEKEEKSAELTAVKQDKNAG
notes: TatAd, Bacillus subtilis, product of the tatAd-his gene in pBAD24 (pBAd-His); also called TatAd-His; TatAd complex; not shown: His6, C-terminal, kept
binding result: binds
